B1: Isoform 2 of Bardet-Biedl syndrome 7 protein (Homo sapiens), Q8IWZ6-2 (parent)
chain: MDLILNRMDYLQVGVTSQKTMKLIPASRHRATQKVVIGDHDGVVMCFGMKKGEAAAVFKTLPGPKIARLELGGVINTPQEKIFIAAASEIRGFTKRGKQFLSFETNLTESIKAMHISGSDLFLSASYIYNHYCDCKDQHYYLSGDKINDVICLPVERLSRITPVLACQDRVLRVLQGSDVMYAVEVPGPPTVLALHNGNGGDSGEDLLFGTSDGKLALIQITTSKPVRKWEIQNEKKRGGILCIDSFDIVGDGVKDLLVGRDDGMVEVYSFDNANEPVLRFDQMLSESVTSIQGGCVGKDSYDEIVVSTYSGWVTGLTTEPIHKESGPGEELKINQEMQNKISSLRNELEHLQYKVLQERENYQQSSQSSKAKSAVPSFGINDKFTLNKDDASYSLILEVQTAIDNVLIQSDVPIDLLDVDKNSAVVSFSSCDSESNDNFLLATYRCQADTTRLELKIRSIEGQYGTLQAYVTPRIQPKTCQVRQYHIKPLSLHQRTHFIDHDRPMNTLTLTGQFSFAEVHSWVVFCLPEVPEKPPAGECVTFYFQNTFLDTQLESTYRKGEGVFKSDNISTISILKDVLSKEATKRKINLNISYEINEVSVKHTLKLIHPKLEYQLLLAKKVQLIDALKELQIHEGNTNFLIPEYHCILEEADHLQEEYKKQPAHLERLYG
partner: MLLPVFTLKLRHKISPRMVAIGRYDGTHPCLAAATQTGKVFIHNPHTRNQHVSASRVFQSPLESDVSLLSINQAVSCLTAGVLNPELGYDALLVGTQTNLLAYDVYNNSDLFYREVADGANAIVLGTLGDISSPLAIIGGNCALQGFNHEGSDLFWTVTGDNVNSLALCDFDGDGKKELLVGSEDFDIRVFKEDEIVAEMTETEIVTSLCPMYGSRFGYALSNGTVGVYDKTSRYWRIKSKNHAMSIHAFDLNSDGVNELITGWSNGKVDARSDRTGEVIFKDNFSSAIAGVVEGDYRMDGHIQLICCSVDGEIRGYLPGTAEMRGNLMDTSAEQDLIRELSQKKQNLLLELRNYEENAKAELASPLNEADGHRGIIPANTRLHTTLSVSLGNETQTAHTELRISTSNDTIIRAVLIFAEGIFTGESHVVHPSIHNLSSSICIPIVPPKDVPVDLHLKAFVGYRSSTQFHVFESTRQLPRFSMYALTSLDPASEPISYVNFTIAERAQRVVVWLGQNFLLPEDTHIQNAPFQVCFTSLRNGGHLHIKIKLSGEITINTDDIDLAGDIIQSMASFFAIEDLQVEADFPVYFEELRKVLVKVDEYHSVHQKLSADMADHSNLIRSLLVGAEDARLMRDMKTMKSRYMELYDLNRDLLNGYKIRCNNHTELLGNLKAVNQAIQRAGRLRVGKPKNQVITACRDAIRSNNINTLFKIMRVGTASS

Variants of: B1
Details: with bbs2_human BBS2, Q9BXC9

effect of a mutation on the interaction | Variant
with no effect | L618A
with no effect | L618K
with no effect | L618E
with no effect | A620E
with no effect | L619A
with no effect | L619E
with no effect | Q616K
disrupting interaction strength | Q616D
with no effect | Q616E
with no effect | V623A
with no effect | V623K
with no effect | V623E
with no effect | L591A
with no effect | L591K
with no effect | D568A
with no effect | D568E
with no effect | D568K
with no effect | K582A
with no effect | I597K
with no effect | I593K
with no effect | L613E
with no effect | Q624K
with no effect | Q624E
disrupting interaction strength | Q624S
with no effect | Q624A

effect of a mutation on the interaction | Variant
with no effect | Y615K
with no effect | Y615E
with no effect | S571E
with no effect | K588A
with no effect | S574A
with no effect | I573K
with no effect | I573E
with no effect | D627E
with no effect | D627A
with no effect | I570E
with no effect | V579A
with no effect | V579E
with no effect | L632E
with no effect | L632A
with no effect | L580A
with no effect | K586A
with no effect | K586E
with no effect | E631A
with no effect | N590A
with no effect | H604K
with no effect | L576E
with no effect | L608E
with no effect | D578A
with no effect | R587A
with no effect | L606K

effect of a mutation on the interaction | Variant
with no effect | L606E
with no effect | K630E
with no effect | A628E
with no effect | N598K
with no effect | S594A
with no effect | K621E
with no effect | L625A
with no effect | L625K
with no effect | L629E
with no effect | L629K
with no effect | I609A
with no effect | T585K
with no effect | T585E
with no effect | E583A
with no effect | Y595A
with no effect | S581K
with no effect | S581A
with no effect | N569A
with no effect | N569E
with no effect | E614K
with no effect | L617K
with no effect | A584E
with no effect | I626A
with no effect | S601E

Second part, the variant before the results:

Variant | effect of a mutation on the interaction
A620K | with no effect
T605E | with no effect
T605A | with no effect
T605K | with no effect
L619K | with no effect
Q616A | with no effect
L591E | with no effect
K582E | with no effect
I597E | with no effect
I597A | with no effect
I593A | with no effect
I593E | with no effect
I589E | with no effect
I589K | with no effect
I589A | with no effect
K607E | with no effect
K607A | with no effect
L613A | with no effect
L613K | with no effect
S567K | with no effect
S567E | with no effect
S567A | with no effect
K612E | with no effect

Variant | effect of a mutation on the interaction
K612A | with no effect
V602K | with no effect
V602A | with no effect
V602E | with no effect
Q624Y | disrupting interaction strength
Q624L | disrupting interaction strength
Y615A | with no effect
S571K | with no effect
S571A | with no effect
K588E | with no effect
S574K | with no effect
S574E | with no effect
E596A | with no effect
E596K | with no effect
I573A | with no effect
D627K | with no effect
I570K | with no effect
I570A | with no effect
I570L | disrupting interaction strength
V579K | with no effect
T572K | with no effect
T572E | with no effect
T572A | with no effect

Variant | effect of a mutation on the interaction
L632K | with no effect
L580K | with no effect
L580E | with no effect
E631K | with no effect
N592A | with no effect
N592E | with no effect
N592K | with no effect
N590E | with no effect
N590K | with no effect
V600K | with no effect
V600E | with no effect
V600A | with no effect
P611K | with no effect
P611A | with no effect
P611E | with no effect
I575E | with no effect
I575K | with no effect
I575A | with no effect
H604A | with no effect
H604E | with no effect
L576A | with no effect
L576K | with no effect
K622A | with no effect

Variant | effect of a mutation on the interaction
K622E | with no effect
L608K | with no effect
L608A | with no effect
D578E | with no effect
D578K | with no effect
R587K | with no effect
R587E | with no effect
L606A | with no effect
H610E | with no effect
H610K | with no effect
H610A | with no effect
K630A | with no effect
A628K | with no effect
N598E | with no effect
N598A | with no effect
S594E | with no effect
S594K | with no effect
K621A | with no effect
L625E | with no effect
L629A | with no effect
I609E | with no effect
I609K | with no effect
K603A | with no effect

Variant | effect of a mutation on the interaction
K603E | with no effect
T585A | with no effect
E583K | with no effect
Y595E | with no effect
Y595K | with no effect
S581E | with no effect
N569K | with no effect
E614A | disrupting interaction strength
K577A | with no effect
K577E | with no effect
L617A | with no effect
L617E | with no effect
E599A | with no effect
E599K | with no effect
A584K | with no effect
I626K | with no effect
I626E | with no effect
S601A | with no effect
S601K | with no effect

Reference: IntAct's records for PubMed 29039417
